From patent US20040156851A1, “HMGB1 combination therapies” (Critical Therapeutics, Inc., priority 2002, published 2004)

B1: HMGB1: Recombinant full length human HMGB1, GST fusion system, SEQ ID NO:18; recombinant rat HMGB1 used in some experiments (protein, listed as Homo sapiens)
chain: MGKGDPKKPTGKMSSYAFFVQTCREEHKKKHPDASVNFSEFSKKCSERWKTMSAKEKGKFEDMAKADKARYEREMKTYIPPKGETKKKFKDPNAPKRLPSAFFLFCSEYRPKIKGEHPGLSIGDVAKKLGEMWNNTAADDKQPYEKKAAKLKEKYEKDIAAYRAKGKPDAAKKGVVKAEKSKKKKEEEEDEEDEEDEEEEEDEEDEEDEEEDDDDE
B2: B box: Human HMGB1 mutant containing only the B box, SEQ ID NO:20 (protein, listed as Homo sapiens)
chain: FKDPNAPKRLPSAFFLFCSEYRPKIKGEHPGLSIGDVAKKLGEMWNNTAADDKQPYEKKAAKLKEKYEKDIAAY

Tests used:
RAW 264.7 cells [1] = assay: 125I-HMGB1 cell surface binding to RAW 264.7 cells; design: species or system murine; conditions: 4° C., specific binding (FIG. 5A)
Description: Purified HMGB1 protein (10 μg) was radiolabeled with 0.2 mCi of carrier-free ^125I (NEN Life Science Products Inc., Boston, Mass.) using Iodo-beads (Pierce, Rockford, Ill.) according to the manufacturer's instructions. ^125I-HMGB1 protein was separated from un-reacted ^125I by gel chromatography columns (P6 Micro Bio-Spin Chromatography Columns, Bio-Rad Laboratories, Hercules, Calif.) previously equilibrated with 300 mM sodium chloride, 17.5 mM sodium citrate, pH 7.0, and 0.1% bovine serum albumin (BSA). The specific activity of the eluted HMGB1 was about 2.8×10^6 cpm/μg protein. Cell surface binding studies were performed as previously described (Yang et al., Am. J. Physiol. 275:C675-C683, 1998). […] The radioactivity in the lysate was then measured using a gamma counter. Specific binding was determined as total binding minus the radioactivity obtained in the presence of an excess amount of unlabeled HMGB1 or A box proteins.
To determine whether the HMGB1 A box acts as an antagonist by displacing HMGB1 binding, ^125I-labeled —HMGB1 was added to macrophage cultures and binding was measured at 4° C. after 2 hours. Binding assays in RAW 264.7 cells were performed as described herein. ^125I-HMGB1 binding was measured in RAW 264.7 cells plated in 24-well dishes for the times indicated in FIG. 5A. […] The specificity of binding was assessed as described in Example 1. […]

RAW 264.7 cells [2] = assay: TNF release from RAW 264.7 cells stimulated with HMGB1, mutants or B box peptides (L929 cytotoxicity bioassay); type: cell-based, murine
Description: Murine macrophage-like RAW 264.7 cells (American Type Culture Collection, Rockville, Md.) were cultured in RPMI 1640 medium (Life Technologies, Grand Island, N.Y.) supplemented with 10% fetal bovine serum (Gemini, Catabasas, Calif.), penicillin and streptomycin (Life Technologies) and were used at 90% confluence in serum-free Opti-MEM I medium (Life Technologies, Grand Island, N.Y.). […] Polymyxin B was not used in experiments of synthetic peptide studies.
TNF release was measured by a standard murine fibroblast L929 (ATCC, American Type Culture Collection, Rockville, Md.) cytotoxicity bioassay (Bianchi et al., Journal of Experimental Medicine 183:927-936, 1996) with the minimum detectable concentration of 30 pg/ml. Recombinant mouse TNF was obtained from R&D system Inc., (Minneapolis, Minn.). Murine fibroblast L929 cells (ATCC) were cultured in DMEM (Life Technologies, Grand Island, N.Y.) supplemented with 10% fetal bovine serum (Gemini, Catabasas, Calif.), penicillin (50 units/ml) and streptomycin (50 μg/ml) (Life Technologies) in a humidified incubator with 5% CO2.
The effect of the mutants on TNF release from Murine macrophage-like RAW 264.7 cells (ATCC) was carried out as follows. RAW 264.7 cells were cultured in RPMI 1640 medium (Life Technologies, Grand Island, N.Y.) supplemented with 10% fetal bovine serum (Gemini, Catabasas, Calif.), penicillin and streptomycin (Life Technologies). Polymyxin (Sigma, St. Louis, Mo.) was added at 100 units/ml to suppress the activity of any contaminating LPS. Cells were incubated with 1 μg/ml of full length (wild-type) HMGB1 and each HMGB1 mutant protein in Opti-MEM I medium for 8 hours. Conditioned supernatants (containing TNF which had been released from the cells) were collected and TNF released from the cells was measured by a standard murine fibroblast L929 (ATCC) cytotoxicity bioassay (Bianchi et al., supra) with the minimum detectable concentration of 30 pg/ml. Recombinant mouse TNF was obtained from R & D Systems Inc., (Minneapolis, Minn.) and used as control in these experiments. Data in FIG. 1 are all presented as mean±SEM unless otherwise indicated. (N=6−10).
(§1) To further examine the effect of HMGB1 B box on cytokine production, varying amounts of HMGB1 B box were evaluated for the effects on TNF, IL-1B, and IL-6 production in murine macrophage-like RAW 264.7 cells. Conditioned media were harvested and measured for TNF, IL-1β and IL-6 levels. TNF levels were measured as described herein, and IL-1β and IL-6 levels were measured using the mouse IL-1β and IL-6 enzyme-linked immunosorbent assay (ELISA) kits (R&D System Inc., Minneapolis, Minn.) and N>5 for all experiments.
The kinetics of B box-induced TNF release were also examined. TNF release and TNF mRNA expression were measured in RAW 264.7 cells induced by B box polypeptide or GST tag polypeptide only (used as a control (vector)) (10 μg/ml) for 0 to 48 hours. Supernatants were analyzed for TNF protein levels by an L929 cytotoxicity assay (N=3-5) as described herein. For mRNA measurement, cells were plated in 100 mm plates and treated in Opti-MEM I medium containing B box polypeptide or the vector alone for 0, 4, 8, or 24 hours, as indicated in FIG. 2D. The vector only sample was assayed at the 4 hour time point. Cells were scraped off the plate and total RNA was isolated using the RNAzol B method in accordance with the manufacturer's instructions (Tel-Test “B”, Inc., Friendswood, Tex.). TNF (287 bp) was measured by RNase protection assay (Ambion, Austin, Tex.). Equal loading and the integrity of RNA was verified by ethidium bromide staining of the RNA sample on an agarose-formaldehyde gel. […] TNF mRNA expression was maximal at 4 hours and decreased at 8 and 24 hours. […] A similar study was carried out measuring TNF protein released from RAW 264.7 cells 0, 4, 8, 24, 32 or 48 hours after administration of B box or vector only (GST tag), using the L929 cytotoxicity assay described herein. […]

RAW 264.7 cells [3] = assay: IL-6 release from RAW 264.7 cells (ELISA); type: cell-based, murine; conditions: B box 0-10 μg/ml, 8 hours (FIG. 2C)
Description: as §1

C3H/HeJ mice = assay: Lethality and histology in C3H/HeJ mice; type: in vivo; conditions: 8 hours after administration

Molecule	125I-HMGB1 binding over time (RAW 264.7 cells [1])	TNF protein release over time (RAW 264.7 cells [2]; 10 μg/ml, 0-48 hours, compared to medium only (FIG. 2E))	TNF release, dose response (RAW 264.7 cells [2]; B box 0-10 μg/ml, 8 hours (FIG. 2A))	IL-6 release, dose response (RAW 264.7 cells [3])	histology of liver (C3H/HeJ mice)
B1	saturable first order binding kinetics	–	–	–	–
B2	–	stimulated TNF protein expression	increased with increased amounts of B box	IL-6 release from RAW 264.7 cells increased with increased amounts of B box	mild acute inflammatory responses, with some hepatocyte dropout and apoptosis
